These are literature values, as cited in article PMC10967246.

As a reminder, the Kd is a measure of binding affinity in units of concentration.

Like-named read-outs stand apart in the source and are kept apart here.

For data set [1], the target named is GluTR (Arabidopsis thaliana) (UniProt P42804).
For data set [2] the target is unchanged. The experiment in a line: MST.

Chain of GluTR (Arabidopsis thaliana) (P42804 62-543): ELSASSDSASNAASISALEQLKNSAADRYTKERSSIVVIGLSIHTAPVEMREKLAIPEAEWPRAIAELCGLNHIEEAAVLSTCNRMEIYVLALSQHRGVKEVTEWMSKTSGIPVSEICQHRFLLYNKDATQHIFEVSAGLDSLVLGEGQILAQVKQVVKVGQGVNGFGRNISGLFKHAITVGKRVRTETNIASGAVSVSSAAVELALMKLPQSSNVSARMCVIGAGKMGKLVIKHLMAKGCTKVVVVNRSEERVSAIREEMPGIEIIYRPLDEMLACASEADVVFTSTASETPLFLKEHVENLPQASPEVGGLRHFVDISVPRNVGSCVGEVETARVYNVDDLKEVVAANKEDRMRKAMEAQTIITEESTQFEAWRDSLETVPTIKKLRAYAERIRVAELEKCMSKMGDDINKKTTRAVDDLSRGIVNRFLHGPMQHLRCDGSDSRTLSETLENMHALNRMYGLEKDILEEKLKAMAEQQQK
Chain of FLU TPR domain (Q940U6 203-316): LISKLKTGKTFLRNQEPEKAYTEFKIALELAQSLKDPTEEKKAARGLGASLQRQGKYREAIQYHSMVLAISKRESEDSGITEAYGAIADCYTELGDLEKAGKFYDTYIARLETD
Chain of GBP (Q9LU39 43-317): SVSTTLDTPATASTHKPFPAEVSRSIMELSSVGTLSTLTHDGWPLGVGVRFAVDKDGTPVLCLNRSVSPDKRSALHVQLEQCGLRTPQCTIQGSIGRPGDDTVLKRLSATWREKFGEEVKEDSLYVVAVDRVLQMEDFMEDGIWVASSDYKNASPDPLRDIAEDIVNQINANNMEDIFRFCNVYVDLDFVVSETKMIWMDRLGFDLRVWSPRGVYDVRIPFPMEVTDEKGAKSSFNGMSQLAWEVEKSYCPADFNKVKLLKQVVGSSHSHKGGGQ

Turning to FLU TPR domain (from UniProt Q940U6), the Kd in data set [1] was 475 nM.

On to GBP (from UniProt Q9LU39), for which the Kd in data set [2] was 42 nM.
